Test results: patent US4711951A, “Therapeutically active compound and pharmaceutical composition containing the same” (priority 1981, dated 1987)

How the values were obtained:
[1] = tested on: white mice (male mice of type NMRI); test: Blood sugar level in mice after intravenous injection (anthrone method); type: in vivo; conditions: i.v.; for blood sugar level reduced to % of the normal value: in 30 minutes
Experimental: Test animals were white mice (male mice of type NMRI) having a body weight of 25±2 g. The solutions below were administrated intravenously in the tails of the mice. There were three groups of mice, in which there were three mice each. The solutions contained:
Group A: 0.5 ml 0.9% (w/v) NaCl
Group B: 0.5 ml 0.9% (w/v) NaCl and 5 ug native insulin
Group C: 0.5 ml 0.9% (w/v) NaCl 50 ug insulin-2-pyridyl disulfide derivative synthesized as above.
Blood samples were collected in micro capillary tubes from the corners of the eyes of the mice. The samples were collected 10 minutes before injection and 30, 120, 240 minutes, 7, 15 and 24 hours on injection. The anthrone method was used to determine the carbohydrate content of the samples (Burt J R; Anal Biochem, 9 (1964) p 293-302).

[2] = Half-life of circulating catalase activity in burnt rats (Clark electrode); type: in vivo, rats (Sprague Dawley); conditions: i.v., 20,000 IU, hind paws burnt 5 minutes after injection, catalase activity in blood
Experimental: (§1) Test animals were white rats (Sprague Dawley) of a body weight of 300-350 g. Two groups of rats (6 individuals each) were separately injected intravenously with 0.5 ml 0.9% (w/v) NaCl containing 20,000 international units (IU) native catalase respectively an amount of catalase-2-dipyridyl disulfide derivative (synthesized as above) corresponding to 20,000 (IU) native catalase. 5 minutes after injection hind paws of all the rats were burnt by dipping into circulating water of +55° C. for 20 seconds. 0.4 ml blood was collected from the left arteriae carotis at the time intervals 2, 15, 30, 60, 120 and 180 minutes. The catalase activity in each blood sample was determined as the amount of oxygen formed per time unit. Measurements were carried out with a Clark electrode by standard procedures.

[3] = tested on: white rats (Sprague Dawley), burnt hind paws; test: Oedema of the burn, measured as the volume of the paw; type: in vivo; conditions: i.v., amount corresponding to 20,000 IU, in 2 hours
Experimental: as §1
The oedema of the burn was measured as the volume of the paw. This volume was measured as corresponding deplacement at even time cuts during 3 hours.

[4] = Determination of half-life for circulation in rabbit (superoxide dismutase activity of blood samples); type: in vivo; conditions: i.v., 1 ml of 10 mg/ml
Experimental: Test animals were white rabbits having a body weight of 2-5 kg. 1 ml native superoxide dismutase (yeast superoxide dismutase, Carlsberg Laboratories, Copenhagen, Denmark) (10 mg/ml) or 1 ml superoxide dismutase-2-pyridyl disulfide derivative (10 mg/ml) was injected intravenously into the rabbits. Both of the solutions were prepared from 0.9% (w/v) NaCl. Blood samples were collected from the ear lobes of the rabbits at the time intervals 5, 10, 20, 30, 60, 90, 120, 150, 180 and 210 minutes. The superoxide dismutase activity of the samples was determined according to Crapo J D, McCord J M and Fridovich I; Methods of Enzymology 53 (1978) p 382-393.

insulin-2-pyridyl disulfide derivative: insulin reacted with N-succinimidyl-3-(2-pyridyldithio)-propionate (SPDP)
time until blood sugar level returned to normal values ([1]; 50 ug derivative (group C)): > 24 h
blood sugar level reduced to % of the normal value ([1]; 50 ug derivative (group C)): 40 % of the normal value

native insulin: native insulin, underivatized base compound used as comparison
time until blood sugar level reached the normal value (value before injection) ([1]; 5 ug native insulin (group B)): 7 h
blood sugar level reduced to % of the normal value ([1]; 5 ug native insulin (group B)): 40 % of the normal value

B1: native catalase: catalase of bovine liver (Sigma C-100), further purified by gel filtration (protein, UniProt P00432 2-527, looked up)
Catalase: ADNRDPASDQMKHWKEQRAAQKPDVLTTGGGNPVGDKLNSLTVGPRGPLLVQDVVFTDEMAHFDRERIPERVVHAKGAGAFGYFEVTHDITRYSKAKVFEHIGKRTPIAVRFSTVAGESGSADTVRDPRGFAVKFYTEDGNWDLVGNNTPIFFIRDALLFPSFIHSQKRNPQTHLKDPDMVWDFWSLRPESLHQVSFLFSDRGIPDGHRHMNGYGSHTFKLVNANGEAVYCKFHYKTDQGIKNLSVEDAARLAHEDPDYGLRDLFNAIATGNYPSWTLYIQVMTFSEAEIFPFNPFDLTKVWPHGDYPLIPVGKLVLNRNPVNYFAEVEQLAFDPSNMPPGIEPSPDKMLQGRLFAYPDTHRHRLGPNYLQIPVNCPYRARVANYQRDGPMCMMDNQGGAPNYYPNSFSAPEHQPSALEHRTHFSGDVQRFNSANDDNVTQVRTFYLKVLNEEQRKRLCENIAGHLKDAQLFIQKKAVKNFSDVHPEYGSRIQALLDKYNEEKPKNAVHTYVQHGSHLSAREKANL
half-life for circulating catalase [2]: 9 min

B2: catalase-2-pyridyl disulfide: purified catalase of bovine liver reacted with SPDP (protein, UniProt P00432 2-527, looked up)
Catalase: B1 Catalase
modifications: SPDP 2-pyridyl disulfide derivative
notes: purified catalase of bovine liver reacted with SPDP
swelling of the burnt paws compared to native catalase [3]: significantly decreased swelling
half-life for circulating catalase [2]: 34 min

B3: native superoxide dismutase: yeast superoxide dismutase, Carlsberg Laboratories, Copenhagen, Denmark (protein, UniProt P00445 2-154, looked up)
Superoxide dismutase [Cu-Zn]: VQAVAVLKGDAGVSGVVKFEQASESEPTTVSYEIAGNSPNAERGFHIHEFGDATNGCVSAGPHFNPFKKTHGAPTDEVRHVGDMGNVKTDENGVAKGSFKDSLIKLIGPTSVVGRSVVIHAGQDDLGKGDTEESLKTGNAGPRPACGVIGLTN
half-life for circulation [4]: about 10 minutes

B4: superoxide dismutase-2-pyridyl disulfide derivative: superoxide dismutase from yeast reacted with SPDP (protein, UniProt P00445 2-154, looked up)
Superoxide dismutase [Cu-Zn]: B3 Superoxide dismutase [Cu-Zn]
modifications: SPDP 2-pyridyl disulfide derivative
notes: superoxide dismutase from yeast reacted with SPDP
half-life for circulation [4]: 60 min
